This note sets out measurements from article doi:10.1101/2025.08.04.668577 (bioRxiv, 2025).

For the experiment, the target named is E2 ectodomain of HCV strain 1a154 (Hepatitis C virus genotype 1a, isolate …, strain). As to the kind of experiment: ELISA. A general note: An ELISA detects its analyte on a solid surface through an enzyme-linked reagent.

B1: HEPC108 IgG (antibody, V domains shown)
VH: QVQLVQSGAEVKKPGSSVKVSCKASGDTFSSSAISWVRQAPGQGLEWMGGSIPIFGATKYAQKFQGRVTITTDKSTSTAYMELSSLRFEDTAVYYCARASIVNISGFVRFRFDSWGQGTLVTVSS
VL: DIQMTQSPSSLSASVGDRVTITCQASQDISNYLNWYQQKPGKAPKLLIYDVSNLEIGVPSRFSGSGSGTEFTLTINSLQPEDLATYFCQHYDDVPPVYTFGQGTSLEIK
With B1, the binding result was “binds”.
